The results in this text go back to article doi:10.1101/2021.06.28.21259671.

Assay [1] concerns the target chimeric secretory component (CSC) of the polymeric immunoglobulin receptor (rabbit/human chimera). Nature of the assay: lateral flow assay.
Assay [2] has the same target. The assay can be described thus: SEC.

Take “CB6-dIgA1 (dimeric IgA1 form of the SARS-CoV-2 specific monoclonal antibody CB6, with J chain)”: the limit of detection in assay [1] is 0.123 µg/mL.
For “CB6-dIgA2 (dimeric IgA2 form of the SARS-CoV-2 specific monoclonal antibody CB6, with J chain)”, the limit of detection in assay [1] amounted to 0.128 µg/mL.
The stoichiometry N is the number of molecules, sites or subunits per partner or assembly. For the substance “chimeric secretory component (CSC) of the polymeric immunoglobulin receptor”, the stoichiometry N in assay [2] amounted to 2.
